Source: paper PMC10914487, “Interaction of human dendritic cell receptor DEC205/CD205 with keratins” (The Journal of Biological Chemistry, 2024)
Like-named read-outs stand apart in the source and are kept apart here.

T1: CysR∼CTLD3-Fc of DEC205 (human, UniProt O60449 28-627)
T1 construct: signal peptide in the construct; DEC205 (CD205, Ly75), human, CysR∼CTLD3 fragment, residues M1-S627; Human Fc homodimeric fragment with 6xHis at its C-termini fused to the C-terminus of CysR∼CTLD3; Used for Western blot (overlay) assays and ELISA; also called CysR∼CTLD3 fragment; CysR-CTLD3 fragment; source: High-Five insect cells (baculovirus made in Sf9), from culture supernatant, purified …
T1 sequence (looked up): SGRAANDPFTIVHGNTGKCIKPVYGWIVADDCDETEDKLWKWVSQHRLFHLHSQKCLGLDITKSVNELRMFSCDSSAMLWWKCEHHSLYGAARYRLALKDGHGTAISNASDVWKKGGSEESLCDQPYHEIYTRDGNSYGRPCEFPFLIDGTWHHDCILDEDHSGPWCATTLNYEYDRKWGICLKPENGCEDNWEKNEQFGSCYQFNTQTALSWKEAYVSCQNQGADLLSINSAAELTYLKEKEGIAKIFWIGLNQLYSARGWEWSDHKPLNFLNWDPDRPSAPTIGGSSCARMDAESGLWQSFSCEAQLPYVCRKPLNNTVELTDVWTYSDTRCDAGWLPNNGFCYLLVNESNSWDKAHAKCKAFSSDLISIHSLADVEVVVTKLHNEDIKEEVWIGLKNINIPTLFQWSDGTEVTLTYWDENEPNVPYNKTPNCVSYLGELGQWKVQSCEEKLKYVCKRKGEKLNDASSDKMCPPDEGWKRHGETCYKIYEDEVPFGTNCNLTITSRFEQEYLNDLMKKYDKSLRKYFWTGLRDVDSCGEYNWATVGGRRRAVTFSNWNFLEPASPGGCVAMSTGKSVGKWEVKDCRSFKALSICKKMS

T2: CysR∼CTLD3-GFP fragment of DEC205 (wild type) (human, UniProt O60449 28-627)
T2 construct: signal peptide in the construct; DEC205 (CD205, Ly75), human, CysR∼CTLD3 fragment, residues M1-S627; Used for flow cytometry; also called CysR-CTLD3 fragment; not shown: GFP, C-terminal, kept
T2 sequence (looked up): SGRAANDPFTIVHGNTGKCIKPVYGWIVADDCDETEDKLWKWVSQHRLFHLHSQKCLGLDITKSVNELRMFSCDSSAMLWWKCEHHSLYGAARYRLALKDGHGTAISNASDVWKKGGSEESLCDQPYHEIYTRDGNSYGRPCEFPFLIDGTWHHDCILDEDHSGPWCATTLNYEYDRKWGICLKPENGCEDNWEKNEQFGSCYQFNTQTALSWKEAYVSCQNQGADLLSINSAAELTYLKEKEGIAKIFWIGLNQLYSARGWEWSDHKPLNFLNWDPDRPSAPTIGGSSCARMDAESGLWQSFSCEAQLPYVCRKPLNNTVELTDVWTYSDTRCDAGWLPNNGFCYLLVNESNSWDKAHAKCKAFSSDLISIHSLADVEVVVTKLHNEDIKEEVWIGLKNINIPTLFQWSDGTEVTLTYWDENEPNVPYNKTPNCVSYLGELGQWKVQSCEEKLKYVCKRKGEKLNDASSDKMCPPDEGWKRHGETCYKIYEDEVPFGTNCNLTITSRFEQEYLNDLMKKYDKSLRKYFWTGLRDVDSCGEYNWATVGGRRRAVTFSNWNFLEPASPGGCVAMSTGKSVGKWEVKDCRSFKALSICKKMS

T3: Human keratin 10 C-terminal tail fragment K10-T1 (residue G461-Y584) (human, UniProt P13645 461-584)
T3 chain: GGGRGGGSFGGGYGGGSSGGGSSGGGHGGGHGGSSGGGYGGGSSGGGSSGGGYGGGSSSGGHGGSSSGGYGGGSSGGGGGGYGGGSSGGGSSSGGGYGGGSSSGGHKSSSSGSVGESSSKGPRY

T4: Human keratin 1 tail region K1-T1 (residue E490-R644) (human, UniProt P04264 490-644)
T4 chain: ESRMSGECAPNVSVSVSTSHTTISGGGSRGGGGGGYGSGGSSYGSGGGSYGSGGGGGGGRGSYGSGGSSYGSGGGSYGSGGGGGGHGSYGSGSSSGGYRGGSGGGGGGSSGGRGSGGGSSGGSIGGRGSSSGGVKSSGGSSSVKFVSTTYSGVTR

B1: CysR∼CTLD3-Fc of DEC205 (Fc fusion)
chain: SGRAANDPFTIVHGNTGKCIKPVYGWIVADDCDETEDKLWKWVSQHRLFHLHSQKCLGLDITKSVNELRMFSCDSSAMLWWKCEHHSLYGAARYRLALKDGHGTAISNASDVWKKGGSEESLCDQPYHEIYTRDGNSYGRPCEFPFLIDGTWHHDCILDEDHSGPWCATTLNYEYDRKWGICLKPENGCEDNWEKNEQFGSCYQFNTQTALSWKEAYVSCQNQGADLLSINSAAELTYLKEKEGIAKIFWIGLNQLYSARGWEWSDHKPLNFLNWDPDRPSAPTIGGSSCARMDAESGLWQSFSCEAQLPYVCRKPLNNTVELTDVWTYSDTRCDAGWLPNNGFCYLLVNESNSWDKAHAKCKAFSSDLISIHSLADVEVVVTKLHNEDIKEEVWIGLKNINIPTLFQWSDGTEVTLTYWDENEPNVPYNKTPNCVSYLGELGQWKVQSCEEKLKYVCKRKGEKLNDASSDKMCPPDEGWKRHGETCYKIYEDEVPFGTNCNLTITSRFEQEYLNDLMKKYDKSLRKYFWTGLRDVDSCGEYNWATVGGRRRAVTFSNWNFLEPASPGGCVAMSTGKSVGKWEVKDCRSFKALSICKKMS

How the values were obtained:
CysR∼CTLD3-Fc of DEC205 [1] = target: T1, CysR∼CTLD3-Fc of DEC205; test: far-Western, overlay or dot blot; keratin fragments resolved by SDS-PAGE and transferred to PVDF; membrane incubated with CysR∼CTLD3-Fc (10 μg/ml) in PBS, 5% milk, 0.1% Tween 20, pH 6.0 or pH 7.4, 2 h, room temperature; detected with HRP anti-human IgG Fcγ antibody; conditions: both partners purified
CysR∼CTLD3-Fc of DEC205 [2] = target: B1; test: ELISA; pH 6.0
CysR∼CTLD3-Fc of DEC205 [3] = target: T1, CysR∼CTLD3-Fc of DEC205; test: ELISA; keratin fragments coated (∼2 μg per well); CysR∼CTLD3-Fc serially diluted in PBS, 2 mg/ml BSA at preset pH (acidic pH), 2 h, 37 °C; detected with HRP anti-human IgG Fcγ antibody; conditions: both partners purified
[4] = target: T2, CysR∼CTLD3-GFP fragment of DEC205 (wild …); test: flow cytometry on cells; inhibition assay: ActD-induced Jurkat cells in PBS pH 6.0 incubated with CysR∼CTLD3-GFP with or without keratin fragments (about 20 μg/ml); the pair meant is keratin fragment and CysR∼CTLD3-GFP; conditions: both partners purified
CysR∼CTLD3-Fc of DEC205 [5] = target: B1; test: ELISA; pH 6.0
[6] = target: T3, Human keratin 10 C-terminal tail …; test: ELISA; pH 6.0
[7] = target: T4, Human keratin 1 tail region K1-T1 …; test: ELISA; pH 6.0
[8] = target: the molecule itself; test: crystal structure; CysR∼CTLD3-His crystallised in 0.2 M sodium citrate, 20% PEG3350, pH 6.5-7.4, 18 °C; P1 crystal form with a homodimer in one asymmetric unit

| Binder | binding result (CysR∼CTLD3-Fc of DEC205 [1]) | binding result [4] | other results |
| --- | --- | --- | --- |
| GGGRGGGSFGGGYGGGSSGGGSSGGGHGGGH (peptide, UniProt P13645 461-491, looked up, keratin 10 (K10), human, tail, residues G461-H491; source: E. coli BL21(DE3), pET28a, purified (Ni-NTA); not shown: SUMO, N-terminal, kept) [K10-T4 (residue G461-H491), SUMO fusion] | binds | – | – |
| GGSSGGGYGGGSSGG (peptide, UniProt P13645 492-506, looked up, keratin 10 (K10), human, tail, residues G492-G506; source: E. coli BL21(DE3), pET28a, purified (Ni-NTA); not shown: SUMO, N-terminal, kept) [K10-T8 (residue G492-G506), SUMO fusion] | binds | – | – |
| GSSGGGYGGG (keratin 10 (K10), human, tail, residues G507-G516; source: E. coli BL21(DE3), pET28a, purified (Ni-NTA); not shown: SUMO, N-terminal, kept) [K10-T11 (residue G507-G516), SUMO fusion] | binds | – | – |
| GSGGGSYGSG (Expressed and purified for ELISA and flow cytometry; source: E. coli BL21(DE3), pET28a, purified (Ni-NTA)) [K1-T3 (G532-G541 and G560-G569: GSGGGSYGSG), SUMO fusion] | – | binds | Kd (CysR∼CTLD3-Fc of DEC205 [2]): 28.7 nM; binding result (CysR∼CTLD3-Fc of DEC205 [3]): binds |
| Human keratin 10 C-terminal tail fragment K10-T1 (residue G461-Y584) (domain or fragment, UniProt P13645 461-584, looked up, keratin 10 (K10), human, C-terminal tail, residues G461-Y584; Expressed without a SUMO tag; source: E. coli BL21(DE3), pET28a, purified (Ni-NTA)) GGGRGGGSFGGGYGGGSSGGGSSGGGHGGGHGGSSGGGYGGGSSGGGSSGGGYGGGSSSGGHGGSSSGGYGGGSSGGGGGGYGGGSSGGGSSSGGGYGGGSSSGGHKSSSSGSVGESSSKGPRY | – | binds | binding result (CysR∼CTLD3-Fc of DEC205 [3]): binds |
| GSSGGGYGGGSSSG (peptide, UniProt P13645 507-520, looked up, keratin 10 (K10), human, tail, residues G507-G520; source: E. coli BL21(DE3), pET28a, purified (Ni-NTA); not shown: SUMO, N-terminal, kept) [K10-T9 (residue G507-G520), SUMO fusion] | binds | – | – |
| GGSSGGGYGGGSSGGGSSGGGYGGGSSSG (peptide, UniProt P13645 492-520, looked up, keratin 10 (K10), human, tail, residues G492-G520; source: E. coli BL21(DE3), pET28a, purified (Ni-NTA); not shown: SUMO, N-terminal, kept) [K10-T5 (residue G492-G520), SUMO fusion] | binds | – | – |
| GGGRGGGSFGGGYGGG (peptide, UniProt P13645 461-476, looked up, keratin 10 (K10), human, tail, residues G461-G476; source: E. coli BL21(DE3), pET28a, purified (Ni-NTA); not shown: SUMO, N-terminal, kept) [K10-T6 (residue G461-G476), SUMO fusion] | binds | – | – |
| SSGGGSSGGGHGGGH (peptide, UniProt P13645 477-491, looked up, keratin 10 (K10), human, tail, residues S477-H491; source: E. coli BL21(DE3), pET28a, purified (Ni-NTA); not shown: SUMO, N-terminal, kept) [K10-T7 (residue S477-H491), SUMO fusion] | binds | – | – |
| ISGGGSRGGG (keratin 1 (K1), human, tail, residues I512-G521; Expressed and purified for ELISA and flow cytometry; source: E. coli BL21(DE3), pET28a, purified (Ni-NTA)) [K1-T2 (I512-G521: ISGGGSRGGG), SUMO fusion] | – | binds | Kd (CysR∼CTLD3-Fc of DEC205 [2]): 29.1 nM; binding result (CysR∼CTLD3-Fc of DEC205 [3]): binds |
| GSSGGGHGGG (keratin 10 (K10), human, tail, residues G481-G490; source: synthetic peptide) [chemically synthesized peptide K10-T10] | – | binds | – |
| GSSGGGYGGG (keratin 10 (K10), human, tail, residues G507-G516; source: synthetic peptide) [chemically synthesized peptide K10-T11] | – | binds | – |
| GSSGGGHGGG (keratin 10 (K10), human, tail, residues G481-G490; Form used in the Western blot (overlay) assay and, with SUMO as control, in ELISA; source: E. coli BL21(DE3), pET28a, purified (Ni-NTA); not shown: SUMO, N-terminal, kept) [K10-T10 (residue G481-G490), SUMO fusion] | – | – | Kd (CysR∼CTLD3-Fc of DEC205 [5]): 10.9 nM; binding result (CysR∼CTLD3-Fc of DEC205 [3]): binds |
| K10-T2 (residue G461-G520), SUMO fusion (domain or fragment, human, UniProt P13645 461-520, looked up, keratin 10 (K10), human, tail, residues G461-G520; source: E. coli BL21(DE3), pET28a, purified (Ni-NTA); not shown: SUMO, N-terminal, kept) GGGRGGGSFGGGYGGGSSGGGSSGGGHGGGHGGSSGGGYGGGSSGGGSSGGGYGGGSSSG | binds | – | – |
| B1 | – | – | Kd [6]: 11.5 nM; Kd [7]: 31.2 nM |
| CysR∼CTLD3 fragment of human DEC205 (residues M1-S627) with a C-terminal 6xHis-tag (domain or fragment, UniProt O60449 28-627, looked up, signal peptide in the construct; DEC205 (CD205, Ly75), human, CysR∼CTLD3 fragment, residues M1-S627; Construct used for crystallisation; a homodimer stands in the asymmetric unit of the P1 crystal form only; also called N-terminal fragment of DEC205; CD205; source: High-Five insect cells (baculovirus made in Sf9), from culture supernatant, purified (Ni-NTA, gel filtration)) SGRAANDPFTIVHGNTGKCIKPVYGWIVADDCDETEDKLWKWVSQHRLFHLHSQKCLGLDITKSVNELRMFSCDSSAMLWWKCEHHSLYGAARYRLALKDGHGTAISNASDVWKKGGSEESLCDQPYHEIYTRDGNSYGRPCEFPFLIDGTWHHDCILDEDHSGPWCATTLNYEYDRKWGICLKPENGCEDNWEKNEQFGSCYQFNTQTALSWKEAYVSCQNQGADLLSINSAAELTYLKEKEGIAKIFWIGLNQLYSARGWEWSDHKPLNFLNWDPDRPSAPTIGGSSCARMDAESGLWQSFSCEAQLPYVCRKPLNNTVELTDVWTYSDTRCDAGWLPNNGFCYLLVNESNSWDKAHAKCKAFSSDLISIHSLADVEVVVTKLHNEDIKEEVWIGLKNINIPTLFQWSDGTEVTLTYWDENEPNVPYNKTPNCVSYLGELGQWKVQSCEEKLKYVCKRKGEKLNDASSDKMCPPDEGWKRHGETCYKIYEDEVPFGTNCNLTITSRFEQEYLNDLMKKYDKSLRKYFWTGLRDVDSCGEYNWATVGGRRRAVTFSNWNFLEPASPGGCVAMSTGKSVGKWEVKDCRSFKALSICKKMS | – | – | binding result [8]: binds |
